Experimental data published in patent US20250136720A1 (Boehringer Ingelheim, published 2025).
Where a chain is given by its changes, count along the chain named. Blank lines part the entries; values can stand above or below the binder they belong to.

Assays:
[1] = target: T1, Human CD137 on Jurkat cells (human, UniProt Q07011 24-255); test: cell-based or functional assay; parameters: IC90; Jurkat-CD137 NFkB-luciferase, HT1080-FAP co-culture / EC90; Jurkat-CD137 NFkB-luciferase, HT1080-FAP co-culture: unit not given beside the values
[2] = target: T1, Human CD137 on Jurkat cells; test: cell-based or functional assay

B5: CD137 #8 (A49.V43) + FAP #2 (A11 VK3/VH3) (bispecific antibody, human IgG1, kappa, L234A L235A)
heavy: not shown
light: EIVMTQSPLSLPVTPGEPASISCRSSQSLLYSNGYNHLDWYLQKPGQSPQLLIYLGSNRASGVPDRFSGSGSGTDFTLKISRVEAEDVGVYYCMQALQTPPTFGQGTKLEIKRTVAAPSVFIFPPSDEQLKSGTASVVCLLNNFYPREAKVQWKVDNALQSGNSQESVTEQDSKDSTYSLSSTLTLSKADYEKHKVYACEVTHQGLSSPVTKSFNRGEC
- EC90; Jurkat-CD137 NFkB-luciferase, HT1080-FAP co-culture [1]: 5.04
- IC90; Jurkat-CD137 NFkB-luciferase, HT1080-FAP co-culture [1]: 467
- Total AUC; Jurkat-CD137 NFkB-luciferase, HT1080-FAP co-culture [1]: 2.5e+07
- Average EC50; Jurkat-CD137 NFkB-luciferase, HT1080-FAP co-culture [2]: 0.327 nM
- Average EC90; Jurkat-CD137 NFkB-luciferase, HT1080-FAP co-culture [2]: 2.59 nM
- Average IC50; Jurkat-CD137 NFkB-luciferase, HT1080-FAP co-culture [2]: 958 nM
- Average IC90; Jurkat-CD137 NFkB-luciferase, HT1080-FAP co-culture [2]: 210 nM
- Ratio IC50/EC50; Jurkat-CD137 NFkB-luciferase, HT1080-FAP co-culture [2]: 2930
- Ratio IC90/EC90; Jurkat-CD137 NFkB-luciferase, HT1080-FAP co-culture [2]: 81.2

B7: CD137 #4 (B21.V25) + FAP #2 (A11 VK3/VH3) (bispecific antibody, human IgG1, kappa, L234A L235A)
heavy: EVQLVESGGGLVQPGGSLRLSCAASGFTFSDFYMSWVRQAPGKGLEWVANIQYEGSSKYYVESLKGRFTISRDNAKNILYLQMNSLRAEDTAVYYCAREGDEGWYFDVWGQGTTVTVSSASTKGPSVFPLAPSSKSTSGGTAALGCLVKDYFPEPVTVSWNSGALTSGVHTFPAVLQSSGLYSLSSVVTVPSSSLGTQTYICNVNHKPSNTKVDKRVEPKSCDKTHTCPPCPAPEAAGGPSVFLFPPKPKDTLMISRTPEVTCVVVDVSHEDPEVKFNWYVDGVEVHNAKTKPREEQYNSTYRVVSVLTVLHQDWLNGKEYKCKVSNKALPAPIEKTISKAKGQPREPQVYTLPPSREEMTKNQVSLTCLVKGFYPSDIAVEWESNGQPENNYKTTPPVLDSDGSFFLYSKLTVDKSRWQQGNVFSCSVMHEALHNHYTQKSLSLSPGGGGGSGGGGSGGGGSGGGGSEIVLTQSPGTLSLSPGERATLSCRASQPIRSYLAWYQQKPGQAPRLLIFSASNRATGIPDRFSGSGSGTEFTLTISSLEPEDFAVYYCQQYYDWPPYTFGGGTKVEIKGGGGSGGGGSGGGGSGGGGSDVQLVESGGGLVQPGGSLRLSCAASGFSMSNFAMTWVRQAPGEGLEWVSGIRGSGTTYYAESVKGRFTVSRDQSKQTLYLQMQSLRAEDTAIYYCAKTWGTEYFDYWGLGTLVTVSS
light: DIQMTQSPSSLSASVGDRVTITCRASQSISTAVAWYQQKPGKAPKLLIYAASYLYSGVPSRFSGSGSGTDFTLTISSLQPEDFAVYYCQQHYSNPWTFGQGTKLEIKRTVAAPSVFIFPPSDEQLKSGTASVVCLLNNFYPREAKVQWKVDNALQSGNSQESVTEQDSKDSTYSLSSTLTLSKADYEKHKVYACEVTHQGLSSPVTKSFNRGEC
- EC90; Jurkat-CD137 NFkB-luciferase, HT1080-FAP co-culture [1]: 0.65
- IC90; Jurkat-CD137 NFkB-luciferase, HT1080-FAP co-culture [1]: 46.9
- Total AUC; Jurkat-CD137 NFkB-luciferase, HT1080-FAP co-culture [1]: 3.3e+06
- Average EC50; Jurkat-CD137 NFkB-luciferase, HT1080-FAP co-culture [2]: 0.273 nM
- Average EC90; Jurkat-CD137 NFkB-luciferase, HT1080-FAP co-culture [2]: 0.738 nM
- Average IC50; Jurkat-CD137 NFkB-luciferase, HT1080-FAP co-culture [2]: 888 nM
- Average IC90; Jurkat-CD137 NFkB-luciferase, HT1080-FAP co-culture [2]: 84 nM
- Ratio IC50/EC50; Jurkat-CD137 NFkB-luciferase, HT1080-FAP co-culture [2]: 3260
- Ratio IC90/EC90; Jurkat-CD137 NFkB-luciferase, HT1080-FAP co-culture [2]: 114

B8: CD137 #2 (B21.V16) + FAP #2 (A11 VK3/VH3) (bispecific antibody, human IgG1, kappa, L234A L235A)
heavy: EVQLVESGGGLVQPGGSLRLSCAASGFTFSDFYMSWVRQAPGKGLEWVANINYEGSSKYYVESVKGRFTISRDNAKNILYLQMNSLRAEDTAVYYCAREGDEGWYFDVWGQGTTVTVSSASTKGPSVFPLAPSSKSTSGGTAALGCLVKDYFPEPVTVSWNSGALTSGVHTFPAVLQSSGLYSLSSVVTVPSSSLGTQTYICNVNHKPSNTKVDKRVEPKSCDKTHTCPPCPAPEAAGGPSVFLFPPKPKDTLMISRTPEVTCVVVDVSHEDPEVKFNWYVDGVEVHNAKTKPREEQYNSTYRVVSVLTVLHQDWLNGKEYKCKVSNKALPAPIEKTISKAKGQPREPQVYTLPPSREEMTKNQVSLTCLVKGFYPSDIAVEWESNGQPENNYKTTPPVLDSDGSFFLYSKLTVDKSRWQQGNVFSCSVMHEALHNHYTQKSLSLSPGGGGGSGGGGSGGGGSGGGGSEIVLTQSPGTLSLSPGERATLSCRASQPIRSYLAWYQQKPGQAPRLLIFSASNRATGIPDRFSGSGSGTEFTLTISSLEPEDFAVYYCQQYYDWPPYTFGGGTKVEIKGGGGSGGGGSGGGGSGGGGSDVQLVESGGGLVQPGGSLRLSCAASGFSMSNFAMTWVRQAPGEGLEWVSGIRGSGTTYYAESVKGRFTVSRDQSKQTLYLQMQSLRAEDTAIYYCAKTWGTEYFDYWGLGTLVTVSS
light: B7 light with R24K, S28D, T31S, A50S, Y53S, L54R, S56T
- EC90; Jurkat-CD137 NFkB-luciferase, HT1080-FAP co-culture [1]: 3.14
- IC90; Jurkat-CD137 NFkB-luciferase, HT1080-FAP co-culture [1]: 127
- Total AUC; Jurkat-CD137 NFkB-luciferase, HT1080-FAP co-culture [1]: 3.3e+06
- Average EC50; Jurkat-CD137 NFkB-luciferase, HT1080-FAP co-culture [2]: 0.165 nM
- Average EC90; Jurkat-CD137 NFkB-luciferase, HT1080-FAP co-culture [2]: 1.47 nM
- Average IC50; Jurkat-CD137 NFkB-luciferase, HT1080-FAP co-culture [2]: 847 nM
- Average IC90; Jurkat-CD137 NFkB-luciferase, HT1080-FAP co-culture [2]: 87.8 nM
- Ratio IC50/EC50; Jurkat-CD137 NFkB-luciferase, HT1080-FAP co-culture [2]: 5130
- Ratio IC90/EC90; Jurkat-CD137 NFkB-luciferase, HT1080-FAP co-culture [2]: 59.7

Now from value to binder:

- EC90; Jurkat-CD137 NFkB-luciferase, HT1080-FAP co-culture [1]: 0.98
- IC90; Jurkat-CD137 NFkB-luciferase, HT1080-FAP co-culture [1]: 54
- Total AUC; Jurkat-CD137 NFkB-luciferase, HT1080-FAP co-culture [1]: 3.18e+07
- Average EC50; Jurkat-CD137 NFkB-luciferase, HT1080-FAP co-culture [2]: 0.166 nM
- Average EC90; Jurkat-CD137 NFkB-luciferase, HT1080-FAP co-culture [2]: 1.43 nM
- Average IC50; Jurkat-CD137 NFkB-luciferase, HT1080-FAP co-culture [2]: 624 nM
- Average IC90; Jurkat-CD137 NFkB-luciferase, HT1080-FAP co-culture [2]: 84.6 nM
- Ratio IC50/EC50; Jurkat-CD137 NFkB-luciferase, HT1080-FAP co-culture [2]: 3750
- Ratio IC90/EC90; Jurkat-CD137 NFkB-luciferase, HT1080-FAP co-culture [2]: 59.4
B1: CD137 #8 (A49.V43) + FAP #5 (C3 VK1/VH4) (bispecific antibody, human IgG1, kappa, L234A L235A)
heavy: not shown
light: B5 light

- EC90; Jurkat-CD137 NFkB-luciferase, HT1080-FAP co-culture [1]: 2.57
- IC90; Jurkat-CD137 NFkB-luciferase, HT1080-FAP co-culture [1]: 137
- Total AUC; Jurkat-CD137 NFkB-luciferase, HT1080-FAP co-culture [1]: 1.13e+07
B2: CD137 #10 (A49.V48) + FAP #2 (A11 VK3/VH3) (bispecific antibody, human IgG1, kappa, L234A L235A)
heavy: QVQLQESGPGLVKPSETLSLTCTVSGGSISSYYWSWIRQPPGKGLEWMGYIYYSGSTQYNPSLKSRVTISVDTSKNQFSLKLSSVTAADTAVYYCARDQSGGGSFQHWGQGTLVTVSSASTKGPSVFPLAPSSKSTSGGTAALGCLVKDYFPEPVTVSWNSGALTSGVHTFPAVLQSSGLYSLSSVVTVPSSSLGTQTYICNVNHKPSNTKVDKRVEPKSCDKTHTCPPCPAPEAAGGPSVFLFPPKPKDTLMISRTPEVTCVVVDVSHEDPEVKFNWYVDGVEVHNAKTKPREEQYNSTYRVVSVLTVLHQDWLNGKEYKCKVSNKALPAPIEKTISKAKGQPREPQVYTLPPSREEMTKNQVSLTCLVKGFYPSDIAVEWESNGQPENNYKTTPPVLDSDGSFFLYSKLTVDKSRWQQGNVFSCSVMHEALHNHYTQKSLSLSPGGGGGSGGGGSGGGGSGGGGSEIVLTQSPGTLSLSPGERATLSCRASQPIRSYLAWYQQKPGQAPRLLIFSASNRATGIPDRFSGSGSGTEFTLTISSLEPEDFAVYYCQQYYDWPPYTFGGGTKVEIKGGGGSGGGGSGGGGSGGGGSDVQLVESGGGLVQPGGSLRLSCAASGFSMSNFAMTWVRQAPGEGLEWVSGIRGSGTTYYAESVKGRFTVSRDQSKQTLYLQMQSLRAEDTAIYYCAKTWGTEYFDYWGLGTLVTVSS
light: B5 light with N33Q, L55G

- EC90; Jurkat-CD137 NFkB-luciferase, HT1080-FAP co-culture [1]: 4.23
- IC90; Jurkat-CD137 NFkB-luciferase, HT1080-FAP co-culture [1]: 742
- Total AUC; Jurkat-CD137 NFkB-luciferase, HT1080-FAP co-culture [1]: 7.8e+06
B3: CD137 #9 (A49.V47) + FAP #5 (C3 VK1/VH4) (bispecific antibody, human IgG1, kappa, L234A L235A)
heavy: not shown
light: B5 light with N33Q, L55G

- EC90; Jurkat-CD137 NFkB-luciferase, HT1080-FAP co-culture [1]: 0.96
- IC90; Jurkat-CD137 NFkB-luciferase, HT1080-FAP co-culture [1]: 60.8
- Total AUC; Jurkat-CD137 NFkB-luciferase, HT1080-FAP co-culture [1]: 3.15e+07
- Average EC50; Jurkat-CD137 NFkB-luciferase, HT1080-FAP co-culture [2]: 0.17 nM
- Average EC90; Jurkat-CD137 NFkB-luciferase, HT1080-FAP co-culture [2]: 1.01 nM
- Average IC50; Jurkat-CD137 NFkB-luciferase, HT1080-FAP co-culture [2]: 362 nM
- Average IC90; Jurkat-CD137 NFkB-luciferase, HT1080-FAP co-culture [2]: 58.3 nM
- Ratio IC50/EC50; Jurkat-CD137 NFkB-luciferase, HT1080-FAP co-culture [2]: 2130
- Ratio IC90/EC90; Jurkat-CD137 NFkB-luciferase, HT1080-FAP co-culture [2]: 57.6
B4: CD137 #8 (A49.V43) + FAP #3 (A11 VK7/VH1) (bispecific antibody, human IgG1, kappa, L234A L235A)
heavy: not shown
light: B5 light

- EC90; Jurkat-CD137 NFkB-luciferase, HT1080-FAP co-culture [1]: 3.01
- IC90; Jurkat-CD137 NFkB-luciferase, HT1080-FAP co-culture [1]: 93.8
- Total AUC; Jurkat-CD137 NFkB-luciferase, HT1080-FAP co-culture [1]: 7.6e+06
B6: CD137 #9 (A49.V47) + FAP #2 (A11 VK3/VH3) (bispecific antibody, human IgG1, kappa, L234A L235A)
heavy: not shown
light: B5 light with N33Q, L55G
